Source: US20070117966A1

Target: purified αvβ3 integrin (human) (UniProt P06756)
Test: competition ELISA on αvβ3 coated wells; competitor: biotinylated FNfn10-3JCLI4 at 800 pM; no inhibition at the highest concentration

- IC50: > 80 nM
Substance: wild-type FNfn10 (FNfn10-WT), purified protein (from UniProt P02751 1538-1631)
